From a protein production outcome set (Wang et al. 2014)

Test: label from the status in PepcDB records
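Further: failed if final PepcDB status was selected cloned or expressed and not failed if soluble or beyond.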

| Sequence | protein production |
| --- | --- |
| MLNLSSIMKPNEIMKNWIDPEAKAEAERYDNPIPSRTLILTTLEQLDLPQSHAELVDHFDIHDQKSIDALSHRLIAMVRDGQLSKDGFKFQPIGEQPTFDATVYINNKGFGSAHIDGQNDLLLPERELRLVFNGDRVKVRQTSVDRKGKAWGFITEVTQHRVKQLIGKLAVHEGEYFLQPSAPNAHQPIPLEKELIEHAQAKVGENLRVAIDDYPTREEFSTGHIIQSMSDKADTEIIIPQTILEFGLPYEFPEEVVKDAESFKEPSKKDIEGRIDLRDLPLVTIDGEDARDFDDAVYAEKRSGGGYRVVVAIADVSHYVRLGKPLDDEAQERGTSVYFPHFVLPMLPEALSNGLCSLNPHVDRLCMVCDLKLSRAGRVMSYEFYPSVMHSKARLTYTQVGNYFDGQTDAIPDDKNIQKSLNTLFQLYQTLKGLRAKRHAMEFETIETYMTFDELGGIKEILPRTRNEAHKLIEECMLLANVAAAEFSLQHDIPMLYRVHEAPEFSRIQKVKDFVKLLGLPFPDQPTQADYQRVIEATKDRIDAPSIHAVLLRSMMQAYYGAKNAGHYGLAYEAYTHFTSPIRRYPDLLLHRAIKAHLQQKPYPLSGAALDDAGEQFSRTERRADEASRSVTTWLKCHYMKQHLGEEFIGIISAVTEFGLFVTLKDLYVDGMIHVSQLGDDFFLYDQASQSLVGQNRGQIFGLGDEVKIKVAAVNLDERKIDFELMQQITHAGRVIRQKAPRSSKTQATEQVFNVPSETTSTQERDTRKKEKSKSKPSSYAKKSAKKSSPASVSKPVKEKKKVKVKKKKSNAKPKSE | failed |
| MRRRVAAALVAAVLAAPALAQQPEPFEPEGYRTDNYRAPVPATLAGARVLTTAEAEAIWRDKSGAFIDVMPRAPKPKNLPEGTVWRDAPRRNIPGSLWLPDTGYGNLPPAMDDYLQRGLAQASRGDKAALLVIYCLADCWMSWNAARRALAYGYSNIAWYPDGSDGWERAALPTDEGQPEPRPDQ | failed |
| MLNIGVKDVKTNLLTPVVTLSIFGSTGAVLPALAIPVITPTQQDIQPALPEPSPLPPTSPPVLEPPPSPPSPAPESENVLIPVQKIIVEGSTLFGPAEFDPILKPLEGQQVTLAELQRATDAITKLYLEGGYLTSRAVLNEQVVRDGVIRIQVLEGRLEDIRIEGNKGIIQRYIRSRIALGAGVPLNGNRLEEQLRLLRTDPLFANLSASLRPGTTPQESVLVVRVVPARWLNAAFGLDNHTSPAIAPNRATAFLGYNNLSGRGDSVYGSYAIGNNLGTFDWGASNTVEFGYSLPLNAMNGTLTIRTLQADSEITRPPALAAFNIRSESSIYQASFRQPVIRTIREELAFGIGFLMQSAQTFVLGVPAPISPGANASGYSASRVLEFTQEYTRRDTQGAWVFRSQFNFGLPIFGATENPSPIPDGNFFSWLGQGQRLQLLWADNLLILRTDVQLTPNSLLPFHQFVIGGPLSVRGYSTNALSGDNGLRFSGEARFPVLRTANRRPIISIGPLFDLGVVWNHSRNPAGAVPNNVIAGLGMGLLVQPTPNLDLQLQYAAPLIDLPGQTRSLQSDGIYFSLTVRP | failed |
| MELKMKTRALVIGLGSMGKRRVRNLLALGNIDVFGFDVRADRNEEASSKYQITTFDDVQKAFEDVKPEVVVISTPPQLHMTYANMCFDARVPCFIEASVTDIEEIRELGKKALEASLVIAPSCTMRYFPGPKKVKELLEQNVIGSPLSVNYQTGQYLPDWHPWEDIQDFYVSKRESGGAREIVPFELTWLNDLFSHDVKALASAVAKQTDMNADIDDIYHCLLQYDSGVLLNLTVEVISRPLATREMLILGSKGKIKFSADSNSVSYCNLETDGWVESTWEEGTVESQYINPEEPYINEMKDFVTAALAGDQSLFPNNLQDDVKVLEVLEALEEVDQLKGNKA | failed |
| MPRSTAASAPLTVRPFSLVPLMAAYMACTMSMMAFVSLIGPISRALHLETWHAGAAVTVSGVIWMLLARPWGQASDRFGRRRVLLLGTAGFTLAYWALCLFIDLSLQSLPSVAMAFLGLMLGRGLIGAFYAAIPVGGFALIADNVEPQHRARAMATLGAANAVGLVLGPAVAALLARYSLSLPFYAMAVLPLLAFLVLRYQLPRQELHLAQAPTRVRLGDPRLRRPMVVAFVAMLCVSVAQITVSFYALDRLHMSPADAAQTAGVALAMVGVALICAQLVVRKLEWPPLRMIRYGALLSALGYAGSMLVDSAWGLWLAFFVSAAGMGGVFPSFSALAANAVEASEQGATAGSIGAAQGLGVVIGPMAGSLIYAIEPRLPYLLAAVLLVLIAIWPAPQPKDL | failed |
| MENLKNVAPIEDFNWDAYENGEAVTSASHEDLEKAYDGTLNKVNDREVVDGTVIAMNKREVVVNIGYKSDGIIPLNEFRYNPDLKVGDTVEVYIENQEDKKGQLVLSHRKARATRSWDRVNAALENEEIIKGFIKCRTKGGMIVDVFGIEAFLPGSQIDVKPIRDYDVFVGKTMEFKVVKINQEFKNVVVSHKALIEAELEQQKKEIIGKLEKGQVLEGTVKNITSYGVFIDLGGVDGLIHITDLSWGRVSDPKEVVELDQKLNVVILDFDDEKKRIALGLKQLTPHPWDALDTDLKVGDKVKGKVVVMADYGAFIEIATGVEGLIHVSEMSWSQHLRSAQDFMKVGDEVEAVVLTLDREERKMSLGIKQLKQDPWETIEEKYPVGSKHTAKVRNFTNFGVFVEIEEGVDGLIHISDLSWTKKVKHPSEFTQIGADIEVQVLEIDKENRRLSLGHKQLEENPWDVFETVFTVGSVHEGTIIEMLDKGAVVALPYGVEGFATPKHLVKEDGSQAQLDEKLEFKVIEFNKDAKRIILSHSRIFEDVAKAEERAEKKAASGAKKSSNNKREDAPMIQNQAASTTLGDIDALAALKEQLEGKKLEHHHHHH | not failed |
| MFFMQNTKSIYIIIPVHNRREVTLQCLTTLKLNEDLDQYRIVVVDDDSTDGTREAVNAQFPQVIVLEGDGNLWWTGAVKMGMKYAYEQGGELFILLNDDCYPQMGTISKLLKKIDENPNSVIGVQCLDPKSKEPSYGGILTNNNKLQVVKIFHTFNSMTDCDALNGNLLAIPRNIVDKVGFPDAKRFPHHFGDFVYTNRIKKEGYKLFLCNDIVALCEYHYNGLSKKSSQFNRFQELFTPTSQFYWKTEMKGYIELFGIKGIIIYLHKRCLLSSLKVIFLLLDQKLTL | failed |
| MGDPFGGRFGGFRGSLFGGRDPFDDPFFSRPFEDLLEPSNTFSSGASFSNAHKNNGGRGLTIEELPSDEEVEERKDIGIDDQEHASSVNKPSVEHPEDDSDAERKIQNVNQRSDFNRREGTQSRANTFRHHISKVTYGGIHGAYYTSTRTRRKDGDGMVVEESKEADKTTGEATHRISRGINDKVIDYTVDGHSVTRKLNSSGGVESTQTLHNLDEGPAESTQPYHNLKFFERKLAGF | failed |
| MKEIRYLVRQRLPFRGHDESDESANRGNFLELVKYTVGQNEVISKVVLENAPKNNQMVFDEMSEPLIPETRDPVPSSFLLLDLILDYPVVWQQTVQSNVSDKEQMAVVFRFVDKHGTVKERFIGLIHVKETSSASLKCAIDSLFAKRGLSMKQLRGQGYDGANNMKGEFNWLRSLILRENSSAYYIHCFAHQLQLVVVAVAKKQFEVGDFFDMISALLNVVGASCKGKDRIREEYLKEIEEGINQGEIKTGKGLNQELSLQRPGNTRWGTHYTTLHRLAHLFSVIIKLLEFVEEEGTDSTKRRQANGLLKYFNTFDFAFYLQLMLLLLGLTNSLSVALQKKDQDILNPMSLVKSTKQQLCKLRDDGWDSLVNEVFSFCKKHDIELVIMDGEFVNPRNPRKRSNMTNFHHYQVECFYTILDMQIQEFNDRFDEVNTELLSCVASLSPIDSFHEFDQLKVLRLSEFYPQDFTHVDRRSLEHQLGLYIDNIREDERFAN | failed |
| MEQKQQSERLGTEAIPKLLRSLSIPAMIGMFVMALYNVVDTIFISYAVGIEGVAGVTIAFPIMMIMMSMAGALGIGGASVISRRLGERRGEEANQVFGNILTVILVLSVIGFISAFTLLGPALQLFGATSVTQGYATDYLFPILLGSIFFFFAFAANNIIRSEGNATFAMVTMIVPAVLNILLDVLFIFGLNMGVLGASIATVIAQASVTGLVLRYFLTGKSTLSLHWSDLRMKGSVIKEVCLVGLPAFVQQSSASLMMIAINSMLLRFGSDFYVGVFGLVQRIMMFVMMPMMGIMQAMQPIVGYNYGAKQYSRLRETVMLGFKVATIFSIGIFALLMLFPEALLRVFTADREVIQAGVSAMHILFCVTFLIGAQIVAGGLYQSLGKPKQALILSLSRQIIFLIPLVLILPHIFGLSGVWWAFPIADVLSFILTVVLLYRDRNVFFLKTKEERELDLVKTASST | failed |
| MKLKDDPDIIRWINSRPRQALFASVAMVISTMSIGLFKGFDMWTADFFIFSCLLIGFGLLVGWLQKIYYKKVIFEENSDR | failed |
| MSSLNLSPAAVSELVFSQTGLALISLLLTLFCYFAAKILYQRHRVWWLAPIVLAPVVITLLVFNLDIPLPTYFEYTHWLMAMLAPATIAFALPIYRERKLIRQYPLTIAFGVIAGLLLGMVSSWLLVKFVPLPVELSKSLLVRSVSTPFAMEATGAFGGVPELTAMMVLITGIIGMLVCEPLFKLMHIRTSLGKGVALGASAHGAGAAKASELGQQEGVIASLTMIFIGIAMVLGAPFFALIFS | failed |
| MYFDSHLHSEGLGFSELVKLKENGIKEVCSLAFFPVKPKYPQTMIDVFRKLTEFEPLRCEAAGVKMHPAVGIHPRCIPPDYEFVLGYLEEGEWVAFGEIGLELVTDEEIEVLKSQLELAKRMDVPCIIHTPRGNKLKATRKTLEILESLDFPADLAVIDHVNFETLDMVLETEYWIGLTVQPGKLSAEDAARIVAEHGPERFMLNSDAGYRDVEITTVAEAAVKIEEAVGREEMEKVARENARKFLRVLELEHHHHHH | failed |
| MFGCPKDLLNGPCGGALDGKCEVNSNLCPWYSLMEKFELLDGAPLLVEHPVVLEMERIFEGEEVEIKRSSFIKNLGRGKAISVEFPIRLFEKGVREFRKVGDLYTIPDNPLGYPHISPTALGTWLKSKGHSVMPHLTAKDRNVIAISSEFRTALEFDFEGILITTGDWSGFILQGKPVFDLDSANMIRLAKLMFSGVLPTGERVEVKERPFIAGTVNPNYPAKLEGKRLARKIIAGADLVISQVVANRKVVREIPKILQEALKYSPHEVPVVVSILYPLKRELEPILRKMGIKTGDDIRAIVEEISSLEFGGINVIVFEETRWEEKLNEVLDLLKELL | failed |
| MQQYAPTIQRALLFGLLIILLLLGFHILKYFIVPVVWAAIIAYMTWPIYIGIQRFCGENRPNLSATLMISLIILVIGIPLTFAVFMLQHEGRNLFIELQQQIFSGHLSAPDFIRELPLVGNEITRILNEINTNPSNLTQNLSLWIQSHMGYGRFVLSEISKNLVKLCFALLSLFFFYRDGHTILNQVSKALEMVIGPRIHHYMDTISETTRAVVYGVGLTAVAQAILAGLSYFVAGVPNPMVLTIVTFLLALIPFGTPLAYTSVALWLFSQGQMMGAIGVMLWGVCIVSTSDNVIRPLVISGATQIPFLLIMFGVLGGLASFGLVGLFIGPVILAILLAIWREWLHENIEPEPVPKATLIYDDLDDQTKL | failed |
| EVPIGFDTDELSFDMSLVLLTGDMQTKASDPNYTYATTEELTIQNCHVAVFDKDGKRIYFKNFYSKDLGEMKTIGNLSGYELQLEGVRTFGKEDKKVSVLVVANANNANNSPFDNLTTYDGVDNSYTAKTIAKGPVTASLLVKIGKSETTLKYNQDNAPVTVSLIQLSAKIEYTGVYKKENGELLEGFSLTKVAGLNASSKITIFNTSAVENGAFSDLAYPTTKPVTFYTYEISDAFKEVILSVQSGVEPKEYPFPANKFIKGNYYRIKGLKSSTEIEWVLENVEDKEVTLDPFE | not failed |
| AGKQNEVELVAEKQLAFPLDEQTYYLSKSMFQFEENGKEYLHFENTQKSLYDIVIFDIENQQIAKRIPLHKTGPNGLPAVFGSRPSPDSQYILVAQNNISRLSSINSQGEIIRNYNFQTPEGRFTPLSFGSYYNAPAFIKDSCIFLRQEILKPDMKKEDWPRTHMFASQDLRTGEVKWIPIFYPPIFKEEYDNIAGGYGFSYDYNYKESRLVCGFFGYDSLMVTDDLKHIRWYNAKSRYLKSMKPKLGNSMEGINAIIKLNENPRYWHIMYDKYRNVYYRFAEMPYKLAPNESPYETPKGKEFSVIVLNADFEIIGETKFPGKKYFYKMSFVGREGLYISENNLENPQFDENKLVFTCFKIKNASPNK | not failed |
